Laboratory results: the supplement of paper PMC10065799, “High-throughput profiling of sequence recognition by tyrosine kinases and SH2 domains using bacterial peptide display” (eLife, 2023)

How the values were obtained:
[1] = tested on: AncSZ; test: phosphorylation enrichment, bacterial display (enrichment ratio); higher = better substrate or ligand; peptides without Tyr show the background
[2] = target: EPHB1 (UniProt P54762); test: as above
[3] = target: EPHB2 (UniProt P29323); test: as above
[4] = target: FGFR1 (UniProt P11362); test: as above
[5] = target: FGFR3 (UniProt P22607); test: as above
[6] = tested on: Fer (mouse); test: as above
[7] = target: Fes (UniProt P07332); test: as above
[8] = target: Fyn (UniProt P06241); test: as above
[9] = target: Hck (UniProt P08631); test: as above
[10] = target: Jak2 (UniProt O60674); test: as above
[11] = target: MERTK (UniProt Q12866); test: as above
[12] = tested on: c-Abl (mouse); test: as above
[13] = tested on: c-Src; test: as above
[14] = target: Grb2 SH2 (UniProt P62993); test: SH2 binding enrichment of the phosphorylated peptide, bacterial display (enrichment ratio); higher = better substrate or ligand; peptides without Tyr show the background
[15] = target: SHP2-C SH2; test: as above
[16] = target: c-Src SH2; test: as above
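Wherever SH2 binding enrichment of the phosphorylated peptide, bacterial display is given: peptide library displayed on the E. coli surface as eCPX fusions, selected cells deep-sequenced, score is each peptide's frequency after selection divided by its frequency in the input.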
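Wherever phosphorylation enrichment, bacterial display is given: 11-residue human phosphosite peptides and single-mutation variants displayed on the E. coli surface, counted by deep sequencing, each peptide's frequency after selection divided by its frequency in the unselected input library; frequency after pTyr selection over input frequency; kinase dosed for 20-30% of maximal phosphorylation in three min.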

Chain of Fyn (P06241 whole entry, looked up): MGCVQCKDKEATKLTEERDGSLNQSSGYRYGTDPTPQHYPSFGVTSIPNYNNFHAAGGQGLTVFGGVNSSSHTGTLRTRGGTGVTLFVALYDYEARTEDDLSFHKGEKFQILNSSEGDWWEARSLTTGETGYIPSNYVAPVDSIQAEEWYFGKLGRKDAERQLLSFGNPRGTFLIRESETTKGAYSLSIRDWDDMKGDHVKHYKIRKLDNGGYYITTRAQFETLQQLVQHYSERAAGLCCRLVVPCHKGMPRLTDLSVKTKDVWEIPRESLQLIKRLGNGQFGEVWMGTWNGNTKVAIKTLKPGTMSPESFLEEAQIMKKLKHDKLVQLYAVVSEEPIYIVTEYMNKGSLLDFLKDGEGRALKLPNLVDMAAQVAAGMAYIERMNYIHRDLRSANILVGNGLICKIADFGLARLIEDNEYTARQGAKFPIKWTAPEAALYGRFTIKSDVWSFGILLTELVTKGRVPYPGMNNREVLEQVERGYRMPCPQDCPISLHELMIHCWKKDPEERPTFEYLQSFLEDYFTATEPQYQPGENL
Chain of EPHB2 (P29323 whole entry, looked up): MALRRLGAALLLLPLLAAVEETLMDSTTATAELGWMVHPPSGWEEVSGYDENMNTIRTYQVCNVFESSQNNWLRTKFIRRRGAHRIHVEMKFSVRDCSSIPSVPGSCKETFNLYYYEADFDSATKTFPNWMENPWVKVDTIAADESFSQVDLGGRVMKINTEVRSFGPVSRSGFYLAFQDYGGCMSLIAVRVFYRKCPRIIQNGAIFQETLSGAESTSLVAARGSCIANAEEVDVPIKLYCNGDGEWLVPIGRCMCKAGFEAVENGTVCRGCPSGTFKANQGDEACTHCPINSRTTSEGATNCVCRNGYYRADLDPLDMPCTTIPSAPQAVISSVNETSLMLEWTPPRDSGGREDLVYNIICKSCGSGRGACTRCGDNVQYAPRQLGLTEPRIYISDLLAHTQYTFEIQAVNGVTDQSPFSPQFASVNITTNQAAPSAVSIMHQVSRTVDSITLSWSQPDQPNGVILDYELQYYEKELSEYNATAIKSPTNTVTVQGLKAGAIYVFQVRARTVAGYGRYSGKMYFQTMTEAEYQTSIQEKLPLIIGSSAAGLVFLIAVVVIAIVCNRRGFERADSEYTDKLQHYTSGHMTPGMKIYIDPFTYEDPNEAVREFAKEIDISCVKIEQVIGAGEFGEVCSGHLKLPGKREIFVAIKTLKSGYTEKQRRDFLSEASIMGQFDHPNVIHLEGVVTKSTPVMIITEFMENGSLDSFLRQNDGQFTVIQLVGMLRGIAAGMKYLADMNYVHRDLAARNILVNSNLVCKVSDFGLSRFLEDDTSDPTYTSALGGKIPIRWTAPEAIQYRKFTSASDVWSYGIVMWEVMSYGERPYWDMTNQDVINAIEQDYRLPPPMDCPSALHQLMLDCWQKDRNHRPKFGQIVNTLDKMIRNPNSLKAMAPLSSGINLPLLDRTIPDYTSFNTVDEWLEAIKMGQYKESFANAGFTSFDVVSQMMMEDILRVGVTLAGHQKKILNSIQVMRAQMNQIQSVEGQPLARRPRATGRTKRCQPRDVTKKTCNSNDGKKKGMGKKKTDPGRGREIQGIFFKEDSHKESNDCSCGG
Chain of Grb2 SH2 (P62993 whole entry, looked up): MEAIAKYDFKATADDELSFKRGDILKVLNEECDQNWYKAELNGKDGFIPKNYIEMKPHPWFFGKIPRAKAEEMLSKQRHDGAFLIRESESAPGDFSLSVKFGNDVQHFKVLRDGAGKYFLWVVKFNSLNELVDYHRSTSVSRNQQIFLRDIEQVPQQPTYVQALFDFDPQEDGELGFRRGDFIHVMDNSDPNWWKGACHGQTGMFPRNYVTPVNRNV
Chain of FGFR1 (P11362 whole entry, looked up): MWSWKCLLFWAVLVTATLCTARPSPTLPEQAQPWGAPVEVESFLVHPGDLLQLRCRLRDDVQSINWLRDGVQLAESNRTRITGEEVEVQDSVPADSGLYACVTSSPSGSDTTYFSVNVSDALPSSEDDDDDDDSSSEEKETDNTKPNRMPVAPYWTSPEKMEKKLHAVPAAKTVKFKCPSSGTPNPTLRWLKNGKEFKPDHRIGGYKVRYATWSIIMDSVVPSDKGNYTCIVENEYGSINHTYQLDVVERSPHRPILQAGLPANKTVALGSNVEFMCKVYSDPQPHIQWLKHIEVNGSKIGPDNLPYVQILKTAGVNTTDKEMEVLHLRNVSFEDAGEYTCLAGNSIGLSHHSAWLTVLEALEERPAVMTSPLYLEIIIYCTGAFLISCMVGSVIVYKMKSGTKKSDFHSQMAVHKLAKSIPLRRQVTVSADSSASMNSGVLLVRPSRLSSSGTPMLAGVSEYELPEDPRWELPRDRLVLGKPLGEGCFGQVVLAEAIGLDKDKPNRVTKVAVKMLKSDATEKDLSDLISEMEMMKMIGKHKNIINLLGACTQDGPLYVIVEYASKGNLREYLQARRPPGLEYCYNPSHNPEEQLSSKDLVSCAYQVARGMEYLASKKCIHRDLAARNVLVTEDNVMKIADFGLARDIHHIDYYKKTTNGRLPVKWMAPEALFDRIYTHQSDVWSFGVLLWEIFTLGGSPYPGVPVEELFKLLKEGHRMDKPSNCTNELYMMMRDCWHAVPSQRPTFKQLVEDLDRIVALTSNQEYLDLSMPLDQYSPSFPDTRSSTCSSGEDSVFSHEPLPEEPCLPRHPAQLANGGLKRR
Chain of EPHB1 (P54762 whole entry, looked up): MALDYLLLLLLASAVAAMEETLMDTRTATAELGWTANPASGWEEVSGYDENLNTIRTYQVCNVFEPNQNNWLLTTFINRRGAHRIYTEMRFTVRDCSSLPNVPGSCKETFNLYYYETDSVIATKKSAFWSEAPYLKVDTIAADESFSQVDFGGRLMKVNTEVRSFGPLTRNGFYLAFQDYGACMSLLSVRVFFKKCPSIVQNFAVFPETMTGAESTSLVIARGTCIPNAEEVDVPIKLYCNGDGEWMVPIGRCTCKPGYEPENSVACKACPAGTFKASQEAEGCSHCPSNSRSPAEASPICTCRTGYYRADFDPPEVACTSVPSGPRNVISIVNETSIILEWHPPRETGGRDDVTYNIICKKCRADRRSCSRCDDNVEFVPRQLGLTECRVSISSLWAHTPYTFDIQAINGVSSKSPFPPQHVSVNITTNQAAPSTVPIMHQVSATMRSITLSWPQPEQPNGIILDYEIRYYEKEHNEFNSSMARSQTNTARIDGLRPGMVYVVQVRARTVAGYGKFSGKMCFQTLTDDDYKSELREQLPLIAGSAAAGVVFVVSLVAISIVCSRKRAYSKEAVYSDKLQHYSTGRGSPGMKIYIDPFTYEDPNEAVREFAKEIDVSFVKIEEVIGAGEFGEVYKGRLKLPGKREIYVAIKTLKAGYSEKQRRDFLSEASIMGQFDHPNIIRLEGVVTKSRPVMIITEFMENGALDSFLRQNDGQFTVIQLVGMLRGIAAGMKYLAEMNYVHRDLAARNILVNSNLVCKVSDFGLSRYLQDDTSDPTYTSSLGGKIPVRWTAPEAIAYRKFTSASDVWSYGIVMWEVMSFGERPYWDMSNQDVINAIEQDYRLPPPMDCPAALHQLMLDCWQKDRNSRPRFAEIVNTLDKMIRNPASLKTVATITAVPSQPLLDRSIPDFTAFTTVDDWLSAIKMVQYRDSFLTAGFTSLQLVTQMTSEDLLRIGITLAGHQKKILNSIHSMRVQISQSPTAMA
Chain of FGFR3 (P22607 whole entry, looked up): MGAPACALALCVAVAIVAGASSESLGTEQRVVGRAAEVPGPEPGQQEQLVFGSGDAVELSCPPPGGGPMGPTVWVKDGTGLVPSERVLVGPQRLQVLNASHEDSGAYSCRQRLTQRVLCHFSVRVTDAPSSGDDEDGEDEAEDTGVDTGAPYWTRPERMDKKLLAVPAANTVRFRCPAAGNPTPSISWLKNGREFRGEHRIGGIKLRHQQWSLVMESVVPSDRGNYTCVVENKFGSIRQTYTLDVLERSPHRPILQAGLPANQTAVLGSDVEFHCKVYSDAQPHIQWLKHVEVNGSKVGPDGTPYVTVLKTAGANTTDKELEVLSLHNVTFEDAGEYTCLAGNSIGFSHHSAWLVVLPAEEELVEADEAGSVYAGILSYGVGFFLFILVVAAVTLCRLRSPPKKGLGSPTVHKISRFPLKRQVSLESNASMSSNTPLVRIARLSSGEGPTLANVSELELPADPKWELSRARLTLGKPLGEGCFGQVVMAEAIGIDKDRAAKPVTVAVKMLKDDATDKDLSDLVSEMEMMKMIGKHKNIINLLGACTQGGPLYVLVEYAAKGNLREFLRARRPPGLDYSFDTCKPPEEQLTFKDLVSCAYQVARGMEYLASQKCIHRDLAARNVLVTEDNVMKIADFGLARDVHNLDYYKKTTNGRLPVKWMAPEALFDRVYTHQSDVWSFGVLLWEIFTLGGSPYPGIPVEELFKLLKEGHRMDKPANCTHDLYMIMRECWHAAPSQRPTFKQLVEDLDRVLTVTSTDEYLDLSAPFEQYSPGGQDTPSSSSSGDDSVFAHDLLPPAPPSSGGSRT
Chain of Hck (P08631 whole entry, looked up): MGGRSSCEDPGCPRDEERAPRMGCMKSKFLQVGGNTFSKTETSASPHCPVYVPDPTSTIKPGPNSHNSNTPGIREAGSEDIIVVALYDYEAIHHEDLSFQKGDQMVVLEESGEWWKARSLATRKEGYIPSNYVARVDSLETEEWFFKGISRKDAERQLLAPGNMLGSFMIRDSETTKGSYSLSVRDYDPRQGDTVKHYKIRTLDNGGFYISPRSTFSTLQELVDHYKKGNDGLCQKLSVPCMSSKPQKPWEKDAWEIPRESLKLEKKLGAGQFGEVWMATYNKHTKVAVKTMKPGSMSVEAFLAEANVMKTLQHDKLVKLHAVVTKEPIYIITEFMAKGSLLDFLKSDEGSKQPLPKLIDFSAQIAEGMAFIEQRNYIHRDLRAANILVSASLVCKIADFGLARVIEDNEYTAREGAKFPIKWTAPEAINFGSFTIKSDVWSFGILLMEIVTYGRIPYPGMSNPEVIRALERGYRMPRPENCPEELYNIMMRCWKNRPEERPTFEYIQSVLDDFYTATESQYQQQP

Work on SNNYIYTTLGV [FAM83B_Y639_K640T] yielded a phosphorylation enrichment [1] of 1.07, a phosphorylation enrichment [2] of 7.5 and a phosphorylation enrichment [3] of 4.29. For the same sequence, the phosphorylation enrichment [4] was 6.21, the phosphorylation enrichment [5] was 4.56 and the phosphorylation enrichment [6] was 6.62. It also gave a phosphorylation enrichment [7] of 1.1, a phosphorylation enrichment [8] of 8.37 and a phosphorylation enrichment [9] of 7.83. For the same sequence, the phosphorylation enrichment [10] was 1.28, the phosphorylation enrichment [11] was 8.17 and the phosphorylation enrichment [12] was 2.88. The phosphorylation enrichment [13] was 5.7, the SH2 binding enrichment [14] was 0.883 and the SH2 binding enrichment [15] was 2.71. For the same sequence, the SH2 binding enrichment [16] was 0.725.

For SPYAVYLFFTF [RPGRIP1_Y826_R827L], the phosphorylation enrichment [1] was 0.928, the phosphorylation enrichment [2] was 0.47 and the phosphorylation enrichment [3] was 0.487. It also gave a phosphorylation enrichment [4] of 0.446, a phosphorylation enrichment [5] of 0.87 and a phosphorylation enrichment [6] of 0.628. The phosphorylation enrichment [7] was 1.08, the phosphorylation enrichment [8] was 0.617 and the phosphorylation enrichment [9] was 0.569. For the same sequence, the phosphorylation enrichment [10] was 0.783, the phosphorylation enrichment [11] was 0.533 and the phosphorylation enrichment [12] was 0.797. It also gave a phosphorylation enrichment [13] of 0.748, an SH2 binding enrichment [14] of 1.07 and an SH2 binding enrichment [15] of 0.71. For the same sequence, the SH2 binding enrichment [16] was 0.542.

Work on SPYAVYRFFTF [RPGRIP1_Y826] yielded a phosphorylation enrichment [1] of 1.08, a phosphorylation enrichment [2] of 0.714 and a phosphorylation enrichment [3] of 0.555. It also gave a phosphorylation enrichment [4] of 0.784, a phosphorylation enrichment [5] of 0.783 and a phosphorylation enrichment [6] of 0.875. For the same sequence, the phosphorylation enrichment [7] was 1.33, the phosphorylation enrichment [8] was 1.79 and the phosphorylation enrichment [9] was 1.21. For the same sequence, the phosphorylation enrichment [10] was 1.12, the phosphorylation enrichment [11] was 0.797 and the phosphorylation enrichment [12] was 1.67. It also gave a phosphorylation enrichment [13] of 2.4, an SH2 binding enrichment [14] of 0.728 and an SH2 binding enrichment [15] of 0.574. For the same sequence, the SH2 binding enrichment [16] was 0.447.

SRGLAYPARPA [LEMD2_Y122] was tested, and the phosphorylation enrichment [1] was 0.359, the phosphorylation enrichment [2] was 0.328 and the phosphorylation enrichment [3] was 0.332. The phosphorylation enrichment [4] was 0.34, the phosphorylation enrichment [5] was 0.266 and the phosphorylation enrichment [6] was 0.288. The phosphorylation enrichment [7] was 0.419, the phosphorylation enrichment [8] was 0.331 and the phosphorylation enrichment [9] was 0.339. For the same sequence, the phosphorylation enrichment [10] was 0.401, the phosphorylation enrichment [11] was 0.339 and the phosphorylation enrichment [12] was 0.386. It also gave a phosphorylation enrichment [13] of 0.335, an SH2 binding enrichment [14] of 0.825 and an SH2 binding enrichment [15] of 0.606. For the same sequence, the SH2 binding enrichment [16] was 0.413.

SSAKTYSRMRL [NBEAL2_Y1835_E1833K] showed a phosphorylation enrichment [1] of 0.433, a phosphorylation enrichment [2] of 0.354 and a phosphorylation enrichment [3] of 0.366. The phosphorylation enrichment [4] was 0.34, the phosphorylation enrichment [5] was 0.394 and the phosphorylation enrichment [6] was 0.379. It also gave a phosphorylation enrichment [7] of 0.552, a phosphorylation enrichment [8] of 0.406 and a phosphorylation enrichment [9] of 0.453. For the same sequence, the phosphorylation enrichment [10] was 0.52, the phosphorylation enrichment [11] was 0.4 and the phosphorylation enrichment [12] was 0.542. The phosphorylation enrichment [13] was 0.427, the SH2 binding enrichment [14] was 0.869 and the SH2 binding enrichment [15] was 0.802. The SH2 binding enrichment [16] was 0.773.

SSDKVCAHQMV [MLH1_Y379_Y379C] showed a phosphorylation enrichment [1] of 0.587, a phosphorylation enrichment [2] of 0.379 and a phosphorylation enrichment [3] of 0.443. The phosphorylation enrichment [4] was 0.397, the phosphorylation enrichment [5] was 0.536 and the phosphorylation enrichment [6] was 0.356. The phosphorylation enrichment [7] was 0.606, the phosphorylation enrichment [8] was 0.388 and the phosphorylation enrichment [9] was 0.4. For the same sequence, the phosphorylation enrichment [10] was 0.563, the phosphorylation enrichment [11] was 0.859 and the phosphorylation enrichment [12] was 0.587. For the same sequence, the phosphorylation enrichment [13] was 0.361, the SH2 binding enrichment [14] was 0.984 and the SH2 binding enrichment [15] was 0.705. It also gave an SH2 binding enrichment [16] of 0.714.

With SSQTIYQRVEG [TFR2_Y23_V22I] the phosphorylation enrichment [1] was 0.756, the phosphorylation enrichment [2] was 1.5 and the phosphorylation enrichment [3] was 1.41. The phosphorylation enrichment [4] was 0.562, the phosphorylation enrichment [5] was 0.602 and the phosphorylation enrichment [6] was 1.24. For the same sequence, the phosphorylation enrichment [7] was 0.716, the phosphorylation enrichment [8] was 0.771 and the phosphorylation enrichment [9] was 2.71. For the same sequence, the phosphorylation enrichment [10] was 0.525, the phosphorylation enrichment [11] was 2.74 and the phosphorylation enrichment [12] was 0.814. The phosphorylation enrichment [13] was 1.6, the SH2 binding enrichment [14] was 0.812 and the SH2 binding enrichment [15] was 0.898. It also gave an SH2 binding enrichment [16] of 1.39.

In the case of SSSNPYSTVTV [ACTN2_Y599_M604V], the phosphorylation enrichment [1] is reported as 0.432, the phosphorylation enrichment [2] is reported as 0.342 and the phosphorylation enrichment [3] is reported as 0.359. For the same sequence, the phosphorylation enrichment [4] was 0.745, the phosphorylation enrichment [5] was 0.483 and the phosphorylation enrichment [6] was 9.71. For the same sequence, the phosphorylation enrichment [7] was 0.597, the phosphorylation enrichment [8] was 0.733 and the phosphorylation enrichment [9] was 0.82. It also gave a phosphorylation enrichment [10] of 0.383, a phosphorylation enrichment [11] of 0.464 and a phosphorylation enrichment [12] of 0.567. The phosphorylation enrichment [13] was 1.29, the SH2 binding enrichment [14] was 0.667 and the SH2 binding enrichment [15] was 12.3. For the same sequence, the SH2 binding enrichment [16] was 3.35.

Sequence SSVAGYACLAF [MVD_Y131_A128V_YF] has a phosphorylation enrichment [1] of 0.903, a phosphorylation enrichment [2] of 0.562 and a phosphorylation enrichment [3] of 0.537. It also gave a phosphorylation enrichment [4] of 0.516, a phosphorylation enrichment [5] of 0.792 and a phosphorylation enrichment [6] of 0.511. It also gave a phosphorylation enrichment [7] of 1.21, a phosphorylation enrichment [8] of 0.478 and a phosphorylation enrichment [9] of 0.556. It also gave a phosphorylation enrichment [10] of 0.961, a phosphorylation enrichment [11] of 0.631 and a phosphorylation enrichment [12] of 0.949. It also gave a phosphorylation enrichment [13] of 0.519, an SH2 binding enrichment [14] of 0.834 and an SH2 binding enrichment [15] of 10.7. It also gave an SH2 binding enrichment [16] of 1.76.

Sequence SSVKLYRVFCD [FGB_Y266_P265L_YF] has a phosphorylation enrichment [1] of 0.945, a phosphorylation enrichment [2] of 0.579 and a phosphorylation enrichment [3] of 0.668. It also gave a phosphorylation enrichment [4] of 0.487, a phosphorylation enrichment [5] of 0.749 and a phosphorylation enrichment [6] of 0.469. It also gave a phosphorylation enrichment [7] of 1.12, a phosphorylation enrichment [8] of 0.468 and a phosphorylation enrichment [9] of 0.514. For the same sequence, the phosphorylation enrichment [10] was 0.935, the phosphorylation enrichment [11] was 0.41 and the phosphorylation enrichment [12] was 0.648. The phosphorylation enrichment [13] was 0.47, the SH2 binding enrichment [14] was 0.665 and the SH2 binding enrichment [15] was 0.633. It also gave an SH2 binding enrichment [16] of 0.395.

Sequence SSWKLYPRMLR [HAO1_Y50_R46S] has a phosphorylation enrichment [1] of 0.773, a phosphorylation enrichment [2] of 0.457 and a phosphorylation enrichment [3] of 0.463. For the same sequence, the phosphorylation enrichment [4] was 0.44, the phosphorylation enrichment [5] was 0.472 and the phosphorylation enrichment [6] was 0.454. It also gave a phosphorylation enrichment [7] of 0.871, a phosphorylation enrichment [8] of 0.404 and a phosphorylation enrichment [9] of 0.433. The phosphorylation enrichment [10] was 0.635, the phosphorylation enrichment [11] was 0.432 and the phosphorylation enrichment [12] was 0.539. It also gave a phosphorylation enrichment [13] of 0.366, an SH2 binding enrichment [14] of 0.904 and an SH2 binding enrichment [15] of 0.803. For the same sequence, the SH2 binding enrichment [16] was 0.516.

Work on STEAIYRRFSK [SH3PXD2B_Y42_YF] yielded a phosphorylation enrichment [1] of 0.431, a phosphorylation enrichment [2] of 0.334 and a phosphorylation enrichment [3] of 0.293. The phosphorylation enrichment [4] was 0.493, the phosphorylation enrichment [5] was 0.408 and the phosphorylation enrichment [6] was 0.402. It also gave a phosphorylation enrichment [7] of 0.486, a phosphorylation enrichment [8] of 0.506 and a phosphorylation enrichment [9] of 0.379. For the same sequence, the phosphorylation enrichment [10] was 0.353, the phosphorylation enrichment [11] was 0.372 and the phosphorylation enrichment [12] was 1.2. For the same sequence, the phosphorylation enrichment [13] was 0.45, the SH2 binding enrichment [14] was 0.812 and the SH2 binding enrichment [15] was 0.553. It also gave an SH2 binding enrichment [16] of 0.472.

Work on STGWSYAGVAV [KLHL3_Y577_R575W] yielded a phosphorylation enrichment [1] of 0.929, a phosphorylation enrichment [2] of 0.515 and a phosphorylation enrichment [3] of 0.454. For the same sequence, the phosphorylation enrichment [4] was 0.484, the phosphorylation enrichment [5] was 0.549 and the phosphorylation enrichment [6] was 0.616. The phosphorylation enrichment [7] was 0.776, the phosphorylation enrichment [8] was 0.416 and the phosphorylation enrichment [9] was 0.581. For the same sequence, the phosphorylation enrichment [10] was 0.69, the phosphorylation enrichment [11] was 0.352 and the phosphorylation enrichment [12] was 0.463. For the same sequence, the phosphorylation enrichment [13] was 0.462, the SH2 binding enrichment [14] was 0.718 and the SH2 binding enrichment [15] was 0.965. For the same sequence, the SH2 binding enrichment [16] was 0.529.

In the case of STLEVYSCHPP [IL21R_Y317], the phosphorylation enrichment [1] is reported as 1.33, the phosphorylation enrichment [2] is reported as 1.04 and the phosphorylation enrichment [3] is reported as 1.34. The phosphorylation enrichment [4] was 0.698, the phosphorylation enrichment [5] was 1.04 and the phosphorylation enrichment [6] was 0.904. For the same sequence, the phosphorylation enrichment [7] was 1.56, the phosphorylation enrichment [8] was 1.25 and the phosphorylation enrichment [9] was 1.27. It also gave a phosphorylation enrichment [10] of 1.38, a phosphorylation enrichment [11] of 0.774 and a phosphorylation enrichment [12] of 1.31. It also gave a phosphorylation enrichment [13] of 1.65, an SH2 binding enrichment [14] of 0.71 and an SH2 binding enrichment [15] of 0.559. For the same sequence, the SH2 binding enrichment [16] was 0.451.
